According to patent publication US20240327455A1, “HIGH-AFFINITY SUPRAMOLECULAR POLYMERS FOR BINDING-TRIGGERED ANTIBODY PRECIPITATION AND PURIFICATION” (The Johns Hopkins University, priority 2021, published 2024):
Converted amounts (≈) assume the structure as drawn. Peptide text beside a SMILES is read from it. * marks the point of attachment. Lauroyl = CCCCCCCCCCCC(=O)*

Experiments:
pure mAb1 [1] = biological target: T1, pure mAb1 (Homo sapiens, UniProt P01857); assay: Sequential precipitation and mAb elution using IF solutions
T1 construct: host or cells: CHO is stated only for the clarified harvest
Description: Sequential Precipitation and mAb Elution Using IF Solutions. Three IF stock solutions. IF1 (2.5 mM filler, 250 μM O16). IF2 (2.5 mM filler, 750 μM O16), and IF3 (2.5 mM filler. 200 μM O16), were prepared one day before the precipitation experiment. Pure mAb1 from a concentrated solution (448 μM, 64.5 g/L) was added into 100 uL IF1 and 100 uL IF2 to reach a desired final concentration of 40 μM and 80 μM, respectively. After a 4-hour incubation, the samples were then centrifuged at 15000 rpm for 15 minutes and the supernatant was transferred to 100 uL IF3 for another 4-hour incubation and subsequent centrifugation. 200 μL PBS and 400 μL elution buffer (40 mM sodium acetate. pH 3.7) were then used to wash and resuspend the precipitates from the two precipitation steps. The supernatant from each precipitation step, wash step, and elution step were analyzed by ProA-HPLC (POROS™ A 20 μm Column, Stainless Steel, 2.1×30 mm, 0.1 mL) to determine mAb concentration.

pure mAb1 [2] = biological target: T1, pure mAb1; assay: Sequential precipitation of high mAb titers using lyophilized IFs; details: lyophilized IFs (2.5 mM filler, 400 μM O16); for mAb precipitation yield after six precipitation steps: no salt
Description: Sequential Precipitation of High mAb Titers Using Lyophilized IFs. Six lyophilized IF stock powders (IF4-IF9) were prepared such that upon dissolution in 100 μL, the concentrations of the filler and O16 would be 2.5 mM and 400 μM, respectively. Lyophilized IF powders were prepared one day before the precipitation experiment. The IFs were allowed to co-assemble in water for 24 hours prior to lyophilization. Pure mAb1 from concentrated stock solutions of either (146 μM, 21 g/L) or (215 μM, 31 g/L) was added to the lyophilized IF4. After a 1-hour incubation, the samples were centrifuged at 15000 rpm for 15 minutes. Following centrifugation, the volume of supernatant was measured and fresh PBS was added until a final supernatant volume of 100 μL was reached. The 100 μL supernatant following the first precipitation step was then added to the next lyophilized IF stock powder (IF5) and allowed to incubate for another hour. This process of incubation, centrifugation, and supernatant transfer was repeated until all six lyophilized IFs (IF4-IF9) had been used for mAb precipitation. The supernatants after the first, third, and sixth precipitation steps were analyzed using ProA-HPLC to measure the cumulative amount of mAbs remaining throughout the precipitation process.

pure mAb1 [3] = biological target: T1, pure mAb1; assay: mAb precipitation experiment with co-assembled IFs; details: for mAb precipitation yield at optimal O16 concentration: 2.5 mM filler
Description: mAb Precipitation Experiment. IF stock solutions at desired filler and ligand concentrations were prepared one day before the precipitation experiment. In experimental groups, pure mAb1 from a concentrated solution (448 μM, 64.5 g/L) was then added into 100 μL IF solutions to reach a desired final concentration and incubated for 30 minutes at room temperature. The solution was then centrifuged at 15000 rpm for 15 minutes. For the 1M salt group, ammonium sulfate was added to the mAb-IF mixtures to reach a final concentration of 1M and incubated for another 30 minutes before centrifugation. The supernatant was taken out and analyzed by ProA-HPLC (POROS™ A 20 μm Column, Stainless Steel, 2.1×30 mm, 0.1 mL) to determine the protein concentrations. The precipitated amount of each species was calculated by subtracting the amount in the supernatant from the amount added. The precipitation yield was calculated by dividing […].

mAb1 = biological target: T2, mAb1 (Homo sapiens, UniProt P01857); assay: Turbidity of mAb1-IF mixture (absorbance at 350 nm); details: 40 μM mAb1, 2.5 mM filler, 250 μM O16, absorbance at 350 nm
T2 construct: host or cells: CHO is stated only for the clarified harvest

pure mAb1 [4] = biological target: T1, pure mAb1; assay: mAb precipitation experiment with co-assembled IFs; details: 40 μM mAb1, 2.5 mM filler
[5] = Self-assembly and TEM imaging (filament diameter); assay type: physicochemical; details: self-assembled in PBS pH 7.4; mean±SD (n=30)
Description: Self-Assembly, Co-Assembly, and TEM Imaging. For self-assembly, filler or ligand molecules were dissolved in PBS (20 mM sodium phosphate, 150 mM sodium chloride, pH 7.4) to reach a final concentration of 2.5 mM or 400 μM, respectively, and aged for 24 hours at room temperature. To construct co-assembled IFs, filler and ligand molecules were pretreated with hexafluoroisopropanol (HFIP) to eliminate any pre-existing nanostructures that could be possibly formed during the synthesis and purification process. After HFIP evaporation, filler and ligand molecules were dissolved in PBS (20 mM sodium phosphate, 150 mM sodium chloride, pH 7.4) to reach desired concentrations and aged for 24 hours at room temperature. 10 μl stock of each sample solution was then spotted on carbon film coated copper grids with 400 square mesh (Electron Microscopy Sciences, Hatfield, PA, USA) and the excess was removed with filter paper to leave a thin film of sample on the grid. After letting the sample dry for 5 minutes, 10 μl 2% uranyl acetate was added to the sample grid, and the excess was removed after 30 seconds. All samples were dried for at least three hours before imaging. Bright-field TEM imaging was performed on a FEI Tecnai 12 TWIN Transmission Electron Microscope and all TEM images were required by a SIS Megaview III wide-angle CCD camera.

[6] = CMC measurement with Nile Red; assay type: physicochemical; details: ligand molecules in PBS
Description: CMC measurement. The CMCs of the ligand molecules in PBS were determined using Nile Red, a hydrophobic dye that undergoes changes in both fluorescence intensity and emission wavelength (a blue-shift) upon partition into the hydrophobic domains of supramolecular assemblies. Nile Red was initially dissolved in acetone at 20 μM and 10 μl aliquots were loaded into several centrifuge tubes. After the acetone evaporated under room temperature. 500 μl fresh ligand solutions in PBS at various concentrations were added into the centrifuge tubes containing dry Nile Red and aged overnight for assembly. Fluorescent spectra of Nile Red were then monitored by a Fluorolog fluorometer (Jobin Yvon, Edison, NJ, USA) with fixed excitation wavelength at 560 nm; emission spectra were monitored at 580-720 nm. The ratio of the emission intensity at 635 nm (emission maximum of Nile red in a hydrophobic environment) to that at 660 nm (emission maximum of Nile red in an aqueous environment) was then plotted against the tested concentrations to obtain a transition curve, and the CMC value was determined by the intersection of the two fitting lines.

[7] = biological target: T3, mAb1 in clarified CHO cell culture harvest (Homo sapiens, UniProt P01857); assay: Purification of mAb1 from clarified cell culture harvest; details: sequential precipitation, no salt
T3 construct: host or cells: Chinese hamster ovary (CHO) cells; harvest clarified by depth filtration
Description: Purification of mAb1 from Clarified Cell Culture Harvest. mAb1 at clarified bulk state were incubated with optimized IFs (100 μL) at a concentration of 40 μM or 80 μM for 30 minutes. Same procedures were performed to precipitate mAb1 and obtain the centrifuged pellets. The pellets were then resuspended in […] (400 μL, 40 mM sodium acetate. pH 3.7) and transferred to a dialysis tube (Pur-A-Lyzer Maxi, 50 kDa cut-off molecular weight. Sigma-Aldrich. St. Louis, MO. USA). The resuspended solution was then dialyzed against 40 mM sodium acetate (1 L) at pH 3.7 for 24 hours with dialysis buffer replaced three times. The protein, filler, and ligand concentrations were determined by ProA-HPLC and RP-UPLC.

[8] = Solubility limit of filler molecule in PBS; assay type: physicochemical; details: in PBS (pH 7.4)

T1 sequence (P01857 1-330 isoform P01857-1): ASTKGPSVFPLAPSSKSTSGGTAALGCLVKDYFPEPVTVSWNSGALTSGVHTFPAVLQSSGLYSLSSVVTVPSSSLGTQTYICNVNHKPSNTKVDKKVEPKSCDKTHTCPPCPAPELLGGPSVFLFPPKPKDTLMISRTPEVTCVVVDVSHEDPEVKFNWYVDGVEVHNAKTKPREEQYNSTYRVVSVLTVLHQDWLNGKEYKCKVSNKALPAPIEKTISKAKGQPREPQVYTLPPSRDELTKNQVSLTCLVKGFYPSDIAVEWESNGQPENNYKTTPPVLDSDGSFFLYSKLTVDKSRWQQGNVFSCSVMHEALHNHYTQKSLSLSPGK
T3 sequence (P01857 1-330 isoform P01857-1): as above
T2 sequence (P01857 1-330 isoform P01857-1): as above

For “O16: ligand molecule C12-VVKK[Linker]Z33, linker OEG16”, the “mAb1 precipitated in first precipitation” value (pure mAb1 [1]; 40 μM pure mAb1, IFs with 250 μM O16, no salt) was “More than 82%”, the elution yield (pure mAb1 [1]; 40 μM pure mAb1, elution buffer 40 mM sodium acetate pH 3.7) was roughly 88% and the “final precipitation yield after two sequential precipitations” value (pure mAb1 [1]; 40 μM pure mAb1, second step IFs with 200 μM O16, no salt) was “greater than 97%”. For the same compound, the “mAb1 precipitated in first precipitation” value (pure mAb1 [1]; 80 μM pure mAb1, IFs with 750 μM O16, no salt) was “More than 82%”, the elution yield (pure mAb1 [1]; 80 μM pure mAb1, elution buffer 40 mM sodium acetate pH 3.7) was roughly 88% and the “final precipitation yield after two sequential precipitations” value (pure mAb1 [1]; 80 μM pure mAb1, second step IFs with 200 μM O16, no salt) was “greater than 97%”. For the same compound, the “mAb precipitation yield after six precipitation steps” value (pure mAb1 [2]; 21 mg/mL pure mAb) was 96%, the “mAb precipitation yield after six precipitation steps” value (pure mAb1 [2]; 31 mg/ml pure mAb) was 98% and the “mAb precipitation yield after first precipitation step” value (pure mAb1 [2]; 21 or 31 mg/mL mAb) was “around 20%”. The “mAb precipitation yield after three precipitation steps” value (pure mAb1 [2]; 21 or 31 mg/mL mAb) was roughly 80%, the mAb precipitation yield (pure mAb1 [3]; 40 μM mAb1, 2.5 mM filler, 250 μM O16, binding time 30 minutes) was 83% and the “mAb precipitation yield at optimal O16 concentration” value (pure mAb1 [3]; 40 μM mAb1, no salt) was “around 85%”. The mAb precipitation yield (pure mAb1 [3]; 40 μM mAb1, optimal IFs (2.5 mM filler, 250 μM O16), 1 M salt) was “More than 99%”, the mAb precipitation yield (pure mAb1 [3]; 40 μM mAb1, optimal IFs (2.5 mM filler, 250 μM O16), no salt) was 88% and the “mAb precipitation yield at optimal O16 concentration” value (pure mAb1 [3]; 80 μM mAb1, no salt) was “around 85%”. The “mAb precipitation yield at optimal O16 concentration” value (pure mAb1 [3]; 133 μM mAb1, no salt) was “about 65%”, the “O16 concentration giving the best mAb precipitation yield” value (pure mAb1 [3]; 100 μL mAb1 at 10 μM and 20 μM with 100 μL IFs) was 200 µM and the “time to turbidity plateau” value (mAb1) was no more than 30 min. For the same compound, the mAb precipitation yield (pure mAb1 [4]; 250 μM O16, binding time 2 hours) was 88%, the mAb precipitation yield (pure mAb1 [4]; 250 μM O16, binding time 24 hours) was 92% and the “diameter of self-assembled filamentous structures (TEM)” value (“diameter” for short) [5] was 14.9±1.3 nm. The CMC [6] was 10.5 µM, the “mAb1 precipitation yield from clarified cell culture harvest” value ([7]; 40 μM mAb1 CB) was “more than 86%” and the “mAb1 precipitation yield from clarified cell culture harvest” value ([7]; 80 μM mAb1 CB) was greater than 90%.
For “P2000: ligand molecule C12-VVKK[Linker]Z33, linker PEG2000”, the “diameter” value [5] was 19.3±2.0 nm and the CMC [6] was 8.1 µM.
In the case of “O12: ligand molecule C12-VVKK[Linker]Z33, linker OEG12”, the “diameter” value [5] is reported as 13.6±1.2 nm and the CMC [6] is reported as 8.5 µM.
With CCCCCCCCCCCC(=O)N[C@H](C(=O)N[C@H](C(=O)N[C@@H](CCC(=O)O)C(=O)N[C@@H](CCC(=O)O)C(=O)O)C(C)C)C(C)C [C12-VVEE] (Lauroyl-VVEE-OH; N-terminus and C-terminus assumed) the solubility [8] was 2500 µM (≈ 1640 µg/mL).
With “O36: ligand molecule C12-VVKK[Linker]Z33, linker OEG36” the “yield discrepancy between 1M salt and no salt groups” value (pure mAb1 [3]; 20 μM mAb1, 2.5 mM filler, 100 μM ligand) was “less than 10%”, the “mAb precipitation yield, ranking among ligands” value (pure mAb1 [3]; all conditions (20 and 40 μM mAb1, 1 M salt or no salt)) was “best mAb precipitation yields in all conditions” and the “diameter” value [5] was 18.5±1.8 nm. The CMC [6] was 9.1 µM.
